Measurements from US10858422B2, “Methods for treating systemic lupus erythematosus with an anti-apolipoprotein B antibody” (Abcentra, LLC, priority 2016, dated 2020).
Where “and” joins values, the source holds several entries; their conditions need not be identical. Equal values may be shown once. Read-outs that look alike come from different tables or passages of the source. Marks after values point to notes of the source that are not given here.

What was measured:
[1] = system: patients with atherosclerosis and evidence of carotid or aortic plaque inflammation; experiment: Phase IIa: inflammatory and metabolic biomarkers; assay type: in vivo, human
Protocol: (§1) Incidence and severity of adverse events and clinical laboratory abnormalities as a measure of safety and tolerability of orticumab. Effects of orticumab on inflammatory and metabolic biomarkers. Serum and EDTA plasma samples for soluble biomarker analysis were obtained at baseline and on Day 29 and Day 85. Biomarker assays were performed using the HumanMAP1.6 multiplex panel from Rules Based Medicine (RBM). IL-6 and TNFα immunoassays were performed at Pacific Biomarkers using Quantikine R&D High Sensitivity ELISA. IL-10, MPO and oxLDL immunoassays were performed at Pacific Biomarkers using immunoassay kits from MSA, Prognostix, and Mercodia, respectively. Presence of anti-therapeutic antibodies to orticumab.

SLE ApoE−/− mice [2] = experiment: Passive immunization: plaque area and composition in aortic root, flat preps of aorta; assay type: in vivo, mouse
Protocol: (§2) SLE ApoE^−/− mice were treated with three weekly injections of either orticumab or an irrelevant antibody as control. Six-week old mice were fed with HFD, and were injected at weeks 18, 19 and 20 with orticumab (one dose of 1 mg per week, IP injections), and sacrificed for analysis in week 22. Plaque area and composition were determined in the aortic root.

[3] = system: monocyte chemoattractant protein 1, MCP-1; experiment: In vitro inhibition of oxLDL-mediated cytokine release (MCP-1); assay type: cell-based
Protocol: The ability of orticumab to shut down macrophage pro-inflammatory activity locally in the plaque became the focus, as it was thought to be an important mechanism underlying its therapeutic activity. Initial hypothesis of using orticumab related to neutralizing oxLDL from the systemic compartment, which required 4 μg/mL=˜28 nM=11 mg of orticumab to neutralize 90% systemic oxLDL. Further in vitro assays provided an insight into the minimum effective concentration of orticumab needed to achieve 50% or 90% inhibition of oxLDL-mediated cytokine release (i.e., inhibition of monocyte chemoattractant protein 1, MCP-1): […]

[4] = in vivo
oxidized LDL = oxidized LDL (Homo sapiens, UniProt P04114); conditions: cited from earlier work
oxidized LDL, sequence (P04114 28-4563): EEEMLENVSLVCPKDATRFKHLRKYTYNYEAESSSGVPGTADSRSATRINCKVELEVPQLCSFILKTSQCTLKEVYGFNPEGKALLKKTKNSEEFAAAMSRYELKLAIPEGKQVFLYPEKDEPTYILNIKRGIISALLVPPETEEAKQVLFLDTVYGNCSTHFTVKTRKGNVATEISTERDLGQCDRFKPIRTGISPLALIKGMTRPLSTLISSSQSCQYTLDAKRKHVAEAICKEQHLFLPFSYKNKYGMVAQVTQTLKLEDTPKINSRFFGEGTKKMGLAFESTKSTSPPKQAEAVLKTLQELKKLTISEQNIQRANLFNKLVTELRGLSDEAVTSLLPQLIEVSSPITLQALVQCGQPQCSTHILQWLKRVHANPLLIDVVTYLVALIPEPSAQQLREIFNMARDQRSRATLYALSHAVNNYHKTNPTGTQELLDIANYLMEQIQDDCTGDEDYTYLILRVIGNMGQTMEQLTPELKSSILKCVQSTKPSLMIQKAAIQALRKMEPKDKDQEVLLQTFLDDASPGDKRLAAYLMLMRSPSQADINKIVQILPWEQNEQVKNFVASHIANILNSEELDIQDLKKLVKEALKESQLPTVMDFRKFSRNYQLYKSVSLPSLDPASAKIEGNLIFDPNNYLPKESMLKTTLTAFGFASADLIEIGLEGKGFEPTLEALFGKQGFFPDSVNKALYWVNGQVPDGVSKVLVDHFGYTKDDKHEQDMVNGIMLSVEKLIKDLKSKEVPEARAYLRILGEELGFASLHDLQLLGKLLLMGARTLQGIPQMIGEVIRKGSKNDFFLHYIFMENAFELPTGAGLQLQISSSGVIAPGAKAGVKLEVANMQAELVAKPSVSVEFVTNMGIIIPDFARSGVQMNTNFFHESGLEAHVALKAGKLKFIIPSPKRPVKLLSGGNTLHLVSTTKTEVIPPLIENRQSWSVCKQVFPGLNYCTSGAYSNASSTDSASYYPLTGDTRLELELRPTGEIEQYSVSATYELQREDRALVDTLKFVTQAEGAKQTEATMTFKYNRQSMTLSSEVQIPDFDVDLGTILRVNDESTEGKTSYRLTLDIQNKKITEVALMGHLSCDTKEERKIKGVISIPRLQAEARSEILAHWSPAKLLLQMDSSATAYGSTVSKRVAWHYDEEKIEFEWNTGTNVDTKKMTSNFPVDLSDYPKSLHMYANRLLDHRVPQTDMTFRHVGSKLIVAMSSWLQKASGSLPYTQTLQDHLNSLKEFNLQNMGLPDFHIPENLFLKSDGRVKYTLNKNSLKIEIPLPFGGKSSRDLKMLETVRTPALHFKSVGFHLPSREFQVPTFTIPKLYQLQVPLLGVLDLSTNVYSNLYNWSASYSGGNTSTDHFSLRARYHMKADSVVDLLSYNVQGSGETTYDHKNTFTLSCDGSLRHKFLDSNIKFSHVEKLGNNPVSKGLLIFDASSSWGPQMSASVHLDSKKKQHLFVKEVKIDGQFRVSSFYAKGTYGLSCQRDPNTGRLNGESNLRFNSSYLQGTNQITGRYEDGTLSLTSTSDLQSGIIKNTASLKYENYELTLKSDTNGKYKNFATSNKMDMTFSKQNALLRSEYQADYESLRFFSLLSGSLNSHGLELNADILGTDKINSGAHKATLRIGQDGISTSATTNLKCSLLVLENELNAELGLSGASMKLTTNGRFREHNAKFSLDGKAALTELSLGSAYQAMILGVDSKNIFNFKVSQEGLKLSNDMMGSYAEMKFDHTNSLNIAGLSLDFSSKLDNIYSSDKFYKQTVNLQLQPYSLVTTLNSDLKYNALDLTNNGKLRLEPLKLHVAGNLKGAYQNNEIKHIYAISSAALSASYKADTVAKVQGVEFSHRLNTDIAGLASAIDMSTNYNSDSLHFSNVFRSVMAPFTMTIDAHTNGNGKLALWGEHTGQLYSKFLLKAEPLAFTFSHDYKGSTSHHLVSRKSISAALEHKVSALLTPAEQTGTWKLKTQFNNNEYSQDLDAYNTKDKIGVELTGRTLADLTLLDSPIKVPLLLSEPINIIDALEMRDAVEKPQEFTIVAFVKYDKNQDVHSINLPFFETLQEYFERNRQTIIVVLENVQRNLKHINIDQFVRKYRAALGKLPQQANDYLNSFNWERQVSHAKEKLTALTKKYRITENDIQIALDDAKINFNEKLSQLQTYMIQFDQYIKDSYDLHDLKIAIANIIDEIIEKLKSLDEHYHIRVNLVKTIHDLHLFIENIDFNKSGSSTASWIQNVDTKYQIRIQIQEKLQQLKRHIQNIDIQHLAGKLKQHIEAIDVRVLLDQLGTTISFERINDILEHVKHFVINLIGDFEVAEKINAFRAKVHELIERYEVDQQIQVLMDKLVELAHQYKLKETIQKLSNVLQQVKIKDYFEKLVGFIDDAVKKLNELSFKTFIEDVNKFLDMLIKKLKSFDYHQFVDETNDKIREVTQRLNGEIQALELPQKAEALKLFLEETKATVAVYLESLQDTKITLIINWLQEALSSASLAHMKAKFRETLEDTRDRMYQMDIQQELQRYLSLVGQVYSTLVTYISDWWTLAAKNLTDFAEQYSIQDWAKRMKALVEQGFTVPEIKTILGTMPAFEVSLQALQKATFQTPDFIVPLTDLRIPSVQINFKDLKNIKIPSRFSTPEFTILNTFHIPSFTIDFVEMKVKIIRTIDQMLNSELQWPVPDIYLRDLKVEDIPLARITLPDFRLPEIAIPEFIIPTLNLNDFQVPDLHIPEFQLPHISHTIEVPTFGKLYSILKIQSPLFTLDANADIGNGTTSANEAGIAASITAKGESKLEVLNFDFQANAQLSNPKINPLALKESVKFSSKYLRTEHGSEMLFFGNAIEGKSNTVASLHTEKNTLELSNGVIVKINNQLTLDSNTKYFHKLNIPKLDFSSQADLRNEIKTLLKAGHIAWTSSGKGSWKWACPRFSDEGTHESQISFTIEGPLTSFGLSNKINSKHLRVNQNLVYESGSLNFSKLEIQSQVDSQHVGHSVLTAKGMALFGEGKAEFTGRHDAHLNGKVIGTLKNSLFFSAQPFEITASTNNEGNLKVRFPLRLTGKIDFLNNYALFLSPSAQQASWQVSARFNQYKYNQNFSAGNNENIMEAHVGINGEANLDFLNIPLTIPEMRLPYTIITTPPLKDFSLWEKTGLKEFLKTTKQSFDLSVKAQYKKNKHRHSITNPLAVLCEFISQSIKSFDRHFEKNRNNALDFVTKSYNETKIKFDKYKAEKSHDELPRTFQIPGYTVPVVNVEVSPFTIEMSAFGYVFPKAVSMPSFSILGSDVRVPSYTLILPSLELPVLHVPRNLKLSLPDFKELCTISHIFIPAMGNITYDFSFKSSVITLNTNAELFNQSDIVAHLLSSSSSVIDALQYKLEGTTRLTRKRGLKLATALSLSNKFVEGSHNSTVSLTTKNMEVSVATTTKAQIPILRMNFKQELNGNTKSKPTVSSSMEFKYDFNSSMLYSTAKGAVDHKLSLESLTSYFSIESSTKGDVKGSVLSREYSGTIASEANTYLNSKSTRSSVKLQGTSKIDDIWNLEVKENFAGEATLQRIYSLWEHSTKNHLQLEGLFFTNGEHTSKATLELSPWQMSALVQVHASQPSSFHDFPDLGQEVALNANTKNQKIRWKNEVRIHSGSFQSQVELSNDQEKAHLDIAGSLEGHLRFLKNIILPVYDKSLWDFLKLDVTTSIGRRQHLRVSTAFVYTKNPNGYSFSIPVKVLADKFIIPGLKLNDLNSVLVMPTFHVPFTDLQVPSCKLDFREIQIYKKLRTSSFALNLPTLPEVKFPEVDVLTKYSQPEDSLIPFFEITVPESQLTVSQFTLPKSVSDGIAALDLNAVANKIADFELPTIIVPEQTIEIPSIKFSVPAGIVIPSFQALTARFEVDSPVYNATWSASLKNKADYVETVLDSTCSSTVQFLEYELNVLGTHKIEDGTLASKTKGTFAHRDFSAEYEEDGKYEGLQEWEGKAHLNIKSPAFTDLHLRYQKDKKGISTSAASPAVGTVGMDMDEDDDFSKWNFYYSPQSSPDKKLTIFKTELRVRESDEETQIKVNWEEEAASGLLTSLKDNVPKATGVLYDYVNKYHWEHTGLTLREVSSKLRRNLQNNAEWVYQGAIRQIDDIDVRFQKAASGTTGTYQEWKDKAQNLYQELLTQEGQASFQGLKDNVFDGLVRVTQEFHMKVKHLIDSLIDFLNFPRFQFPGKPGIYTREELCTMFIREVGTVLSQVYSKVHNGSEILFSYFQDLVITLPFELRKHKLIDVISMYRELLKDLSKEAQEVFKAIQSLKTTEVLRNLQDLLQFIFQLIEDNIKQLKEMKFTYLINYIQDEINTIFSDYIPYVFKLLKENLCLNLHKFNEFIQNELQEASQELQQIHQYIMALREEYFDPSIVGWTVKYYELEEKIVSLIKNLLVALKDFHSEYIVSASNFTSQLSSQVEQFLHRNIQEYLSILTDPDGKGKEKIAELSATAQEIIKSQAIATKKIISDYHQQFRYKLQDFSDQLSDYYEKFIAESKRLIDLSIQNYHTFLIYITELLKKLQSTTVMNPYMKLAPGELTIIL

[5] = Phase IIa: safety, tolerability, anti-therapeutic antibodies; set-up: species or system human; conditions: in vivo
Protocol: as §1

[6] = in vivo; remark: listed apart in the source
SLE ApoE−/− mice [7] = experiment: Passive immunization: spleen cells and plasma biomarkers; assay type: in vivo, mouse
Protocol: as §2

[8] = Phase I (FIH) dose-escalation trial, single and multiple doses: pharmacokinetics; set-up: species or system human; conditions: in vivo
Protocol: Study population: 80 healthy subjects with elevated LDL cholesterol.
Orticumab was provided as a sterile liquid and contained no preservatives. Each single-use, 10 mL vial was designed to deliver 250 mg of MLDL1278A. The Drug Product was formulated as 25 mg/mL orticumab in 20 mM sodium acetate, 0.15 M sodium chloride, pH 5.5.
Route of Administration: intravenous injection (Subcutaneous injection was also examined).
The exact explanation for these unusual PK characteristics was unknown at that time. The mean terminal half-life was similar after both single and multiple administrations of orticumab and was generally in the range of 2-3 weeks and thus in agreement with other therapeutic monoclonal antibodies.

[9] = Second Phase I (Ph1): single-dose bioavailability after subcutaneous and intravenous administration; conditions: for tmax: Median (min-max)
[10] = in vivo; remark: listed apart in the source
[11] = in vivo, iv
From the text: Random allocation was stratified by T2DM status and pre-diabetes status, presence of elevated screening tissue-to-background ratio TBR>2), and study site.

[12] = oxLDL-mediated cytokine release
[13] = Intravenous (Cohort A, Period 1), single dose 360 mg, Mean (SD)
[14] = Subcutaneous (Cohort A, Period 2), single dose 360 mg, Mean (SD)
[15] = Subcutaneous (Cohort B), single dose 360 mg, Mean (SD)

For “orticumab: recombinant human IgG1 against MDA-modified peptide 45 of ApoB100; heavy chain SEQ ID NO: 316, light chain SEQ ID NO: 317”, the “interleukin 6 level” value ([1]; 4 weeks, multiple-dose group) was “nominal increase”, the “tumor necrosis factor alpha level” value ([1]; 4 weeks, multiple-dose group) was “nominal increase” and the “lipid parameters or high-sensitivity C-reactive protein level” value ([1]; either group) was “No significant decreases”. For the same substance, the “plaque area in aortic root” value (SLE ApoE−/− mice [2]; 1 mg IP weekly at weeks 18, 19, 20, vs control antibody) was “significantly smaller plaques”, the “apoptosis in plaque areas (number of TUNEL cells)” value (SLE ApoE−/− mice [2]; 1 mg IP weekly x3) was “increased apoptosis” and the “lipid staining, flat preps of the aorta” value (SLE ApoE−/− mice [2]; 1 mg IP weekly x3) was “reduction, although not significant”. The “CD68+ area” value (SLE ApoE−/− mice [2]; 1 mg IP weekly x3, vs control antibody) was “reduced”, the “IC50 for MCP-1 inhibition” value ([3]; expressed as amount) was ~4 mg and the “IC90 for MCP-1 inhibition” value ([3]; expressed as amount) was 12.4 to 33 mg. The “IC50 for MCP-1 inhibition” value [3, 12] was 1.5 µg/mL, the IC90 [3, 12] was 30 to 80 nM and the “IC90 for MCP-1 inhibition” value [3, 12] was 4.5 to 12 µg/mL. The “subjects on active treatment reporting adverse events” value [4] was 44 of the 64, the “treatment-emergent adverse events reported on active treatment” value [4] was 115 (76.2%) and the “binding specificity, oxidized vs native LDL” value (oxidized LDL) was “binds only to oxidized LDL and not to native LDL”. For the same substance, the “dose-limiting toxicities, deaths, pregnancies” value [5] was “No dose-limiting toxicities, deaths, or pregnancies”, the immunogenicity [5] was “no evidence of immunogenicity” and the “serious adverse events related to procedures or administration” value [5] was “No serious adverse events”. For the same substance, the tolerability [5] was “well tolerated”, the “C ≥ 1 μg/mL” value [6] was “Day 57” and the “C ≥ 4 μg/mL” value [6] was “Day 15”. For the same substance, the “C ≥ 12 μg/mL” value [6] was “Day 8”, the t1/2 ([6]; iv, 360 mg) was 20.3 (2.91) d and the “C ≥ 1 μg/mL” value ([6]; sc) was “Day 43”. For the same substance, the “C ≥ 4 μg/mL” value ([6]; sc) was “Day 15”, the “spleen monocytes or B cells” value (SLE ApoE−/− mice [7]; end of experiment) was “no differences” and the “plasma levels of oxidized LDL and plasma cytokines” value (SLE ApoE−/− mice [7]; mouse, in vivo) was “no differences”. The mean terminal half-life ([8]; human) was 2-3 weeks, the Cmax ([8]; human, iv, 1.25 mg/kg) was 20600 ng/mL and the Cmax ([8]; human, iv, 5 mg/kg) was 105000 ng/mL. The Cmax ([8]; human, sc, 1.25 mg/kg) was 2990 ng/mL, the “Cmax, max exposure IV vs SC” value ([8]; 1.25 mg/kg) was 6.9 times and the ½-life ([8]; 1.25 mg/kg) was 20 days. The “C ≥ 1 μg/mL” value ([8]; iv, 1.25 mg/kg) was “Day 28”, the “C ≥ 4 μg/mL” value ([8]; iv, 1.25 mg/kg) was “Day 3 (<Day 7)” and the “C ≥ 12 μg/mL” value ([8]; iv, 1.25 mg/kg) was 11 h. The “C ≥ 1 μg/mL” value ([8]; iv, 5 mg/kg) was “Day 56”, the “C ≥ 4 μg/mL” value ([8]; iv, 5 mg/kg) was “Day 14” and the “C ≥ 12 μg/mL” value ([8]; iv, 5 mg/kg) was “Day 3”. The “C ≥ 1 μg/mL” value ([8]; iv, 15 mg/kg) was “Day 70*”, the “C ≥ 4 μg/mL” value ([8]; iv, 15 mg/kg) was “Day 42” and the “C ≥ 12 μg/mL” value ([8]; iv, 15 mg/kg) was “Day 28”. The “C ≥ 1 μg/mL” value ([8]; sc, 1.25 mg/kg) was “Day 28”, the “C ≥ 4 μg/mL” value ([8]; sc, 1.25 mg/kg) was “Not achieved” and the “C ≥ 12 μg/mL” value ([8]; sc, 1.25 mg/kg) was “Not achieved”. For the same substance, the “Cmax of SC dose versus threshold” value ([8]; sc, 1.25 mg/kg) was “does not reach threshold of 4-12 μg/mL”, the “AUC(0-inf)” value [9, 13] was 412 (87.3) μg * d/mL and the “AUC(0-last)” value [9, 13] was 380 (76.4) μg * d/mL. The CL [9, 13] was 0.906 (0.168) L/d, the Cmax [9, 13] was 84.3 (16.9) μg/mL and the MRT [9, 13] was 16.9 (3.02) d. The Vss [9, 13] was 15.2 (3.25) L, the Vz [9, 13] was 26.3 (5.34) L and the tmax ([9]; Intravenous (Cohort A, Period 1), single dose 360 mg) was 0.04 (0.04-0.04) d. The Cmax ([9]; Ph1 trial, single dosing, 360 mg IV) was 84.3 µg/mL, the Cmax ([9]; Ph1 trial, single dosing, 360 mg SC) was 9.15 µg/mL and the Cmax ([9]; Ph1 trial, single dosing, 360 mg SC 70-90 days after IV dosing) was 15.1 µg/mL. The “AUC(0-last)” value [9, 14] was 215 (60.0) μg * d/mL, the Cmax [9, 14] was 15.1 (4.50) μg/mL and the “AUC(0-inf)” value ([9]; Subcutaneous (Cohort A, Period 2), single dose 360 mg, Mean (SD), corrected by subtracting AUCresidual from Period 1) was 236 (69.7) μg * d/mL. For the same substance, the tmax ([9]; Subcutaneous (Cohort A, Period 2), single dose 360 mg) was 3.99 (1.96-6.91) d, the “AUC(0-inf)” value [9, 15] was 194 (45.6) μg * d/mL and the “AUC(0-last)” value [9, 15] was 178 (39.6) μg * d/mL. For the same substance, the Cmax [9, 15] was 9.15 (3.86) μg/mL, the tmax ([9]; Subcutaneous (Cohort B), single dose 360 mg) was 3.91 (1.00-4.02) d and the t½ ([9]; both routes of administration) was “about 20 days”. The “increase of SC bioavailability by a prior IV dose” value ([9]; in vivo) was “approximately 9%”, the median tmax ([9]; single SC dose) was 96 h and the “Cmax of SC dose versus threshold” value ([9]; single SC dose 360 mg) was “falls within range of 4-12 μg/mL”. For the same substance, the “maximum mean serum concentration” value ([9]; single SC dose 360 mg, Cohort A, Period 2) was 15.1 µg/mL, the “maximum mean serum concentration” value ([9]; single SC dose 360 mg, Cohort B) was 9.15 µg/mL and the “absolute bioavailability based on AUC(0-inf)” value ([9]; single SC dose of 360 mg) was 47%. The bioavailability ([9]; single SC dose of 360 mg after at least 70 days washout from an initial IV dose) was 56%, the ½-life ([9]; single dose 360 mg IV) was 33.5 days and the ½-life ([9]; single dose 360 mg SC) was 24.3 days and 24 days. The “Cmax, max exposure IV vs SC” value ([9]; single dose at 360 mg (4.34 mg/kg)) was 9.2 times, the “SAEs during the study” value [10] was “no SAEs” and the “most frequently reported TEAEs” value ([10]; sc) was “mild intensity local site reactions”. For the same substance, the “Cmax D 1” value [11] was 297 μ/mL.
